# Patent US5871732
# Key:
# [1] = target: recombinant soluble CD4 (human CD4 AA1-AA375) (human) (UniProt P01730); assay: RIA, immobilised antibody; 125I-rsCD4 preincubated with the soluble competitor OKT4A
# [2] = target: CD4-V1 polypeptide (AA1-AA113 and/or AA1-AA111 of human CD4) (human) (UniProt P01730); assay: RIA, antibody captured on goat anti-mouse IgG; CD4-V1 (5 µg/ml) competing with 125I-rsCD4
# [3] = target: recombinant soluble CD4 (human CD4 AA1-AA375) (human) (UniProt P01730); assay: RIA, immobilised antibody; 125I-rsCD4 preincubated with the competitor HIV r-gp120 (2.5 µg/ml)
# [4] = target: recombinant soluble CD4 (human CD4 AA1-AA375) (human) (UniProt P01730); assay: RIA, immobilised antibody; 125I-rsCD4 preincubated with the soluble competitor OKT4
# [5] = target: recombinant soluble CD4 (human CD4 AA1-AA375) (human) (UniProt P01730); assay: RIA, immobilised antibody; 125I-rsCD4 preincubated with the soluble competitor Leu3A
# [6] = target: CD4-V1V2 polypeptide (AA1-AA180 of human CD4) (human) (UniProt P01730); assay: RIA, antibody captured on goat anti-mouse IgG; CD4-V1V2 (5 µg/ml) competing with 125I-rsCD4
# [7] = target: recombinant soluble CD4 (human CD4 AA1-AA375) (human) (UniProt P01730); assay: RIA, 125I-rsCD4 preincubated with the soluble antibody; competitor: immobilised 5A8
# [8] = target: human CD4 displayed on the surface of CD4+ cells (human) (UniProt P01730)
# [9] = target: mouse/human substitution mutant of rsCD4 at AA121-AA124 (V2) (human) (UniProt P01730); assay: mutant rsCD4 (1 µg/ml) as competitor of OKT4 binding to CD4+ cells
# [10] = target: mouse/human substitution mutant of rsCD4 at AA165 (V2) (human) (UniProt P01730); assay: as above
# [11] = target: mouse/human substitution mutant of rsCD4 at AA127-AA134 (V2) (human) (UniProt P01730); assay: as above
# [12] = target: mouse/human substitution mutant of rsCD4 at AA220-AA226 (V3) (human) (UniProt P01730); assay: as above
# [13] = target: mouse/human substitution mutant of rsCD4 at AA240-AA252 (V3) (human) (UniProt P01730); assay: as above
# [14] = target: mouse/human substitution mutant of rsCD4 at AA60 (V1) (human) (UniProt P01730); assay: as above
Substance,% Inhibition rsCD4 Binding By OKT4A [1],CD4-V1 % Inhibition of rsCD4 Binding [2],HIV r-gp120 % Inhibition rsCD4 Binding [3],% Inhibition rsCD4 Binding By OKT4 [4],% Inhibition rsCD4 Binding By Leu 3A [5],CD4-V1V2 % Inhibition of rsCD4 Binding [6],% Inhibition rsCD4 Binding [7],concentration inhibiting syncytia formation 50% [8],% blocking of OKT4 binding to CD4+ cells [9],% blocking of OKT4 binding to CD4+ cells [10],% blocking of OKT4 binding to CD4+ cells [11],% blocking of OKT4 binding to CD4+ cells [12],% blocking of OKT4 binding to CD4+ cells [13],% blocking of OKT4 binding to CD4+ cells [14]
"OKT4A, CD4 V1-specific anti-CD4 mouse monoclonal antibody (Ortho Diagnostic Systems)",68.5%,87.3%,66.1%,-26.8%,62%,95.5%,,,,,,,,
"Leu3A, CD4 V1-specific monoclonal antibody (Becton Dickinson)",73.9%,88.2%,85.1%,-10.3%,85.8%,94%,0%,0.02 µg/mL,,,,,,
"OKT4, CD4 V3V4-specific anti-CD4 mouse monoclonal antibody (Ortho Diagnostic Systems)",3.6%,-5.5%,-8.2%,91.3%,8.4%,14.4%,4%,,60%,60%,60%,60%,60%,60%
